Assay results: PMC7304575, “Cryo-EM structure of the nonameric CsgG-CsgF complex and its implications for controlling curli biogenesis in Enterobacteriaceae” (PLoS Biology, 2020)

B1: CsgG with a C-terminal 6×His tag (natural protein, E. coli, UniProt P0AEA2 16-277, looked up)
chain: CLTAPPKEAARPTLMPRAQSYKDLTHLPAPTGKIFVSVYNIQDETGQFKPYPASNFSTAVPQSATAMLVTALKDSRWFIPLERQGLQNLLNERKIIRAAQENGTVAINNRIPLQSLTAANIMVEGSIIGYESNVKSGGVGARYFGIGADTQYQLDQIAVNLRVVNVSTGEILSSVNTSKTILSYEVQAGVFRFIDYQRLLEGEVGYTSNEPVMLCLMSAIETGVIFLINDGIDRGLWDLQNKAERQNDILVKYRHMSVPPES
notes: CsgG, E. coli K12 MG1655; the full-length csgG gene was expressed and the protein purified from outer membranes; the structure holds residues 16-272 with the C-terminal 5 residues invisible (so 16-277); numbers count on the full-length precursor; also called CsgGHis; C-terminally His-tagged CsgG; not shown: His6, C-terminal, kept
B2: chymotrypsin-digested CsgG (residues 47–252) of the CsgG-CsgF_(20–59) complex (domain or fragment, E. coli, UniProt P0AEA2 47-252, looked up)
chain: GKIFVSVYNIQDETGQFKPYPASNFSTAVPQSATAMLVTALKDSRWFIPLERQGLQNLLNERKIIRAAQENGTVAINNRIPLQSLTAANIMVEGSIIGYESNVKSGGVGARYFGIGADTQYQLDQIAVNLRVVNVSTGEILSSVNTSKTILSYEVQAGVFRFIDYQRLLEGEVGYTSNEPVMLCLMSAIETGVIFLINDGIDRGLW
notes: numbers count on the full-length precursor; The His tag goes with the C-terminal residues that chymotrypsin removed; source: E. coli BL21 (DE3), co-expressed with CsgF, purified (Ni-NTA), chymotrypsin proteolysis, size exclusion chromatography; not shown: His6, C-terminal, cleaved
B3: CsgF_(20–53)-GST (domain or fragment, E. coli, UniProt P0AE98 20-53, looked up)
chain: GTMTFQFRNPNFGGNPNNGAFLLNSAQAQNSYKD
notes: CsgF, E. coli, residues 20-53 (N-terminus of the mature CsgF); numbers count on the full-length precursor; also called CsgF_(20–53) fused to GST C-terminally; source: E. coli BL21 (DE3), purified; not shown: GST, C-terminal, kept

Legend:
[1] = target: the molecule itself; assay: cryo-EM structure; full-length CsgG-CsgF complex, co-expressed and co-purified in DDM; map at 3.6 Å
[2] = target: the molecule itself; assay: cryo-EM structure; chymotrypsin-digested CsgG-CsgF_(20–59) complex in 20 mM Tris-HCl pH 8.0, 150 mM NaCl, 0.06% DDM; filaments on the grid; maps at 2.9 Å (head-to-head, D9) and 3.2 Å (head-to-tail, C9)
[3] = target: B1; assay: pull-down; GST fusions or GST (approximately 0.1 mg) immobilised on glutathione sepharose, approximately 0.2 mg CsgG added, 1 hour at 4°C; washed with 20 mM Tris-HCl pH 7.5, 150 mM NaCl, 5% glycerol, 0.1% DDM; SDS-PAGE and anti-His western blot; conditions: both partners purified

With B1 the “stoichiometry N” value [1] was 9.

For B2, the “stoichiometry N” value [2] was 9.

B3: binds [3].
